Experimental data: article PMC2112703

Biological target: rabbit skeletal muscle actin (rabbit), P68135
Assay: cross-linking
Details: remark: other sources report otherwise

B1: depactin (actin-depolymerizing protein from starfish oocytes), P20690 1-150 (natural protein)
chain: PQSGTALDENVKEEIRAFKMDQSKVKVPWMLLEIVQNDDRIDVVKVTKKAGPSDNLETLREELKQREVVYFVLDYEPSEEKRAKHNIPKGKTYPLTCFWSMETANIKLKMKYSSTVGTLKSATSTLKTYLEAHDFDDLSEEAIGDKIKNF
- stoichiometry N: 1
